The values that follow come from paper PMC4505504.

This assay concerns the target Mycobacterium tuberculosis cytochrome bcc complex (QcrCAB) (M. tuberculosis) (UniProt P9WP35). Put plainly: pyridine hemochrome heme quantification.

A word on the stoichiometry N: it is the number of molecules, sites or subunits per partner or assembly. “Mycobacterium smegmatis cytochrome aa3 (cytochrome oxidase) (complex)” yielded a stoichiometry N of 1.
